Data on 29 sequences can be found in the supplement of paper PMC9428881.

± gives the standard error.

This data set is described as follows: background-corrected fluorescence of 3'-dye-labeled ssDNA relative to brightest sequence (3'-GCGCG) (fraction); higher = brighter dye fluorescence (less quenching). In outline:
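Each of 1024 permuted pentamers was synthesized as single-stranded DNA on glass slides by light-directed phosphoramidite chemistry, with a 3' Cy3 or Cy5 dye alongside. Arrays were scanned at 532 or 635 nm before and after overnight deprotection with ethylenediamine/ethanol. Values average 10 features per array across at least 3 syntheses. The fluorescence readout, with unlabeled-oligo background removed, is given relative to the brightest sequence.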

Turning to “TTTTTTCATGCTCATGATGCTTTTTTTTTTTTTTTGAGCA [ACGAG]”, the background-corrected fluorescence stood at 0.585 ± 0.025 (dye: Cy3 (3' terminal)) and 0.43 ± 0.035 (dye: Cy5 (3' terminal)).

Take “TTTTTTGATGCTGCTGAGCATTTTTTTTTTTTTTTCAACT”: the background-corrected fluorescence is, setting by setting: (dye: Cy3 (3' terminal)) 0.53 ± 0.011; (dye: Cy5 (3' terminal)) 0.342 ± 0.018.

With “TTTTTGCAGCATGCTGATCATTTTTTTTTTTTTTTTTACG [GCATT]”, the background-corrected fluorescence is, setting by setting: (dye: Cy3 (3' terminal)) 0.5 ± 0.023; (dye: Cy5 (3' terminal)) 0.398 ± 0.08.

In the case of “TTTTTTGCTCATCATGCTGCTTTTTTTTTTTTTTTAGGAA [AAGGA]”, the background-corrected fluorescence by setting is: (dye: Cy3 (3' terminal)) 0.648 ± 0.0081; (dye: Cy5 (3' terminal)) 0.559 ± 0.021.

In turn, “TTTTTTGATGCTGATGCTGCTTTTTTTTTTTTTTTCACAA [AACAC]” yielded a background-corrected fluorescence (dye: Cy3 (3' terminal)) of 0.562 ± 0.022 and a background-corrected fluorescence (dye: Cy5 (3' terminal)) of 0.411 ± 0.021.

Consider “TTTTTTGATGATGCTGATCATTTTTTTTTTTTTTTCCACG [GCACC]”, for which the background-corrected fluorescence by setting is: (dye: Cy3 (3' terminal)) 0.513 ± 0.025; (dye: Cy5 (3' terminal)) 0.386 ± 0.021.

Regarding “TTTTTTGATCATGCTGCTGCTTTTTTTTTTTTTTTCGAAA [AAAGC]”, the background-corrected fluorescence reads like this: (dye: Cy3 (3' terminal)) 0.576 ± 0.032; (dye: Cy5 (3' terminal)) 0.475 ± 0.057.

On to “TTTTTTCATGCGCATGATCATTTTTTTTTTTTTTTGATCG [GCTAG]”, for which the background-corrected fluorescence reads like this: (dye: Cy3 (3' terminal)) 0.545 ± 0.016; (dye: Cy5 (3' terminal)) 0.41 ± 0.025.

As to “TTTTTGCATGAGCATGCTGATTTTTTTTTTTTTTTTCTAC [CATCT]”, the background-corrected fluorescence reads like this: (dye: Cy3 (3' terminal)) 0.409 ± 0.017; (dye: Cy5 (3' terminal)) 0.296 ± 0.017.

Turning to “TTTTTTGCTGATCATGCTGATTTTTTTTTTTTTTTACGAC [CAGCA]”, the background-corrected fluorescence is, setting by setting: (dye: Cy3 (3' terminal)) 0.486 ± 0.025; (dye: Cy5 (3' terminal)) 0.38 ± 0.035.

As for “TTTTTTGCTGATGATGCGCATTTTTTTTTTTTTTTACCAT”, the background-corrected fluorescence is 0.499 ± 0.026 (dye: Cy3 (3' terminal)) and 0.364 ± 0.024 (dye: Cy5 (3' terminal)).

“TTTTTTGATGATGCTCATGATTTTTTTTTTTTTTTCCAGC [CGACC]”: the background-corrected fluorescence runs as follows: (dye: Cy3 (3' terminal)) 0.503 ± 0.036; (dye: Cy5 (3' terminal)) 0.395 ± 0.02.

As to “TTTTTTCATGCGCATGCTCATTTTTTTTTTTTTTTGATAG”, the background-corrected fluorescence was determined as 0.526 ± 0.03 (dye: Cy3 (3' terminal)) and 0.425 ± 0.049 (dye: Cy5 (3' terminal)).

As for “TTTTTTCAGCAGCATGATCATTTTTTTTTTTTTTTGTTCG [GCTTG]”, the background-corrected fluorescence turned out to be 0.551 ± 0.0098 (dye: Cy3 (3' terminal)) and 0.371 ± 0.032 (dye: Cy5 (3' terminal)).

Turning to “TTTTTTGCTGCGCATGCTCATTTTTTTTTTTTTTTAATAG [GATAA]”, the background-corrected fluorescence is 0.535 ± 0.0083 (dye: Cy3 (3' terminal)) and 0.408 ± 0.017 (dye: Cy5 (3' terminal)).

Regarding “TTTTTTGATGATCATCATGCTTTTTTTTTTTTTTTCCGGA [AGGCC]”, the background-corrected fluorescence is, setting by setting: (dye: Cy3 (3' terminal)) 0.773 ± 0.024; (dye: Cy5 (3' terminal)) 0.714 ± 0.045.

In turn, “TTTTTGCAGCATGCGCATGCTTTTTTTTTTTTTTTTTATA [ATATT]” yielded a background-corrected fluorescence (dye: Cy3 (3' terminal)) of 0.538 ± 0.038 and a background-corrected fluorescence (dye: Cy5 (3' terminal)) of 0.4 ± 0.028.

Take “TTTTTTCAGCAGCATCATCATTTTTTTTTTTTTTTGTTGG [GGTTG]”: the background-corrected fluorescence runs as follows: (dye: Cy3 (3' terminal)) 0.582 ± 0.0069; (dye: Cy5 (3' terminal)) 0.471 ± 0.028.

As to “TTTTTTGCTGCTCAGCATGCTTTTTTTTTTTTTTTAAGTA [ATGAA]”, the background-corrected fluorescence is, setting by setting: (dye: Cy3 (3' terminal)) 0.591 ± 0.019; (dye: Cy5 (3' terminal)) 0.493 ± 0.074.

Turning to “TTTTTGCAGCAGCAGCAGCATTTTTTTTTTTTTTTTTTTT”, the background-corrected fluorescence reads like this: (dye: Cy3 (3' terminal)) 0.489 ± 0.032; (dye: Cy5 (3' terminal)) 0.34 ± 0.015.

With “TTTTTTGAGCATGCTCATCATTTTTTTTTTTTTTTCTAGG [GGATC]”, the background-corrected fluorescence worked out at 0.647 ± 0.019 (dye: Cy3 (3' terminal)) and 0.507 ± 0.036 (dye: Cy5 (3' terminal)).

Turning to “TTTTTTGATCATCATGCGCATTTTTTTTTTTTTTTCGGAT [TAGGC]”, the background-corrected fluorescence runs as follows: (dye: Cy3 (3' terminal)) 0.593 ± 0.017; (dye: Cy5 (3' terminal)) 0.472 ± 0.033.

Consider “TTTTTTCAGCATGATGCGCATTTTTTTTTTTTTTTGTCAT [TACTG]”, for which the background-corrected fluorescence was 0.529 ± 0.025 (dye: Cy3 (3' terminal)) and 0.39 ± 0.03 (dye: Cy5 (3' terminal)).

For “TTTTTTCATGATGATGCTGCTTTTTTTTTTTTTTTGCCAA [AACCG]”, the background-corrected fluorescence reads like this: (dye: Cy3 (3' terminal)) 0.504 ± 0.034; (dye: Cy5 (3' terminal)) 0.427 ± 0.041.

Regarding “TTTTTTCATCAGCATGCTGCTTTTTTTTTTTTTTTGGTAA [AATGG]”, the background-corrected fluorescence reads like this: (dye: Cy3 (3' terminal)) 0.573 ± 0.022; (dye: Cy5 (3' terminal)) 0.458 ± 0.031.

As for “TTTTTGCATGCGCAGCATGATTTTTTTTTTTTTTTTATTC [CTTAT]”, the background-corrected fluorescence came out at 0.394 ± 0.023 (dye: Cy3 (3' terminal)) and 0.292 ± 0.018 (dye: Cy5 (3' terminal)).

The sequence “TTTTTGCATGCTCAGCATGCTTTTTTTTTTTTTTTTAGTA [ATGAT]” yielded a background-corrected fluorescence (dye: Cy3 (3' terminal)) of 0.566 ± 0.018 and a background-corrected fluorescence (dye: Cy5 (3' terminal)) of 0.491 ± 0.042.

Consider “TTTTTGCAGCAGCATGATGCTTTTTTTTTTTTTTTTTTCA [ACTTT]”, for which the background-corrected fluorescence was determined as 0.482 ± 0.032 (dye: Cy3 (3' terminal)) and 0.373 ± 0.046 (dye: Cy5 (3' terminal)).

For “TTTTTTGATCATCAGCATGCTTTTTTTTTTTTTTTCGGTA [ATGGC]”, the background-corrected fluorescence was 0.589 ± 0.071 (dye: Cy3 (3' terminal)) and 0.488 ± 0.029 (dye: Cy5 (3' terminal)).
